From patent publication US20090136547A1, “ZWITTERIONIZATION OF CAPSULAR SACCHARIDES” (NOVARTIS VACCINES AND DIAGNOSTICS SRL, priority 2005, published 2009)
Ends that are not written are not given here. * marks the point of attachment. Palmitoyl = CCCCCCCCCCCCCCCC(=O)*

Molecular target: T1, TLR2 receptor (Homo sapiens, UniProt O60603)
T1 construct: endogenous in cells; host or cells: purified monocytes
Experiment: Monocyte activation (TNFα, CD80/MHC-II) in absence or presence of anti-TLR2 antibody
Type: cell-based
Settings: FIG. 29 and FIG. 30

T1 sequence (O60603 21-784): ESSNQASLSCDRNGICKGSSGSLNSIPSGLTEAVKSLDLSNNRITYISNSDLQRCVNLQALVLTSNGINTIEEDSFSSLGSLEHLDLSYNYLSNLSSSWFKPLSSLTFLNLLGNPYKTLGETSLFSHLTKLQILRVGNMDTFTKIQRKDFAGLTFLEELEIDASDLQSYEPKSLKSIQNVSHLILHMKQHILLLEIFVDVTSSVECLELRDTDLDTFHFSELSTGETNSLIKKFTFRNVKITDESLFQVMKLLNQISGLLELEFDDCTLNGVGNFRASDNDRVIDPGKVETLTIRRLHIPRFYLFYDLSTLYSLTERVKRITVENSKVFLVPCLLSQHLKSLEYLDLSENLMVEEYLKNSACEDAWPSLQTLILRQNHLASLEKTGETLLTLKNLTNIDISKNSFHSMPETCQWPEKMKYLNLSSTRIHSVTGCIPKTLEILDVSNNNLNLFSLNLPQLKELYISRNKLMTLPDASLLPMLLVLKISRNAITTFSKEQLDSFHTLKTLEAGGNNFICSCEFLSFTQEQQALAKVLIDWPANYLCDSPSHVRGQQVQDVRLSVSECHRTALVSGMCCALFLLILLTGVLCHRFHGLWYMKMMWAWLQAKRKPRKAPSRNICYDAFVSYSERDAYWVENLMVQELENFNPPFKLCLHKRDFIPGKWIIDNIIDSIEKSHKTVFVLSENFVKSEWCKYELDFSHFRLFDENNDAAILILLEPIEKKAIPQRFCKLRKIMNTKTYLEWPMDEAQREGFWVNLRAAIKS

N-palmitoyl-S-[2,3-bis(palmitoyloxy)-(2R,S)-propyl]-(R)-cysteinyl-seryl-(lysyl)(3)-lysine (Palmitoyl-C(2,3‑bis(palmitoyloxy)‑(2R,S)‑propyl)SKKKK) [PAMcsk, synthetic lipopeptide positive control]
effect of anti-TLR2 antibody on activation (TNFα assay, CD80/MHC-II assay): able to block activation
